Measured values from publication PMC4824069.

Molecular target: HEY1 (UniProt Q9Y5J3)
Experiment: co-IP of Flag-DPF3a and HA-HEY1
Conditions: reference: wild type; sites S348

UniProt Q9Y5J3, sequence (Q9Y5J3 whole entry, looked up): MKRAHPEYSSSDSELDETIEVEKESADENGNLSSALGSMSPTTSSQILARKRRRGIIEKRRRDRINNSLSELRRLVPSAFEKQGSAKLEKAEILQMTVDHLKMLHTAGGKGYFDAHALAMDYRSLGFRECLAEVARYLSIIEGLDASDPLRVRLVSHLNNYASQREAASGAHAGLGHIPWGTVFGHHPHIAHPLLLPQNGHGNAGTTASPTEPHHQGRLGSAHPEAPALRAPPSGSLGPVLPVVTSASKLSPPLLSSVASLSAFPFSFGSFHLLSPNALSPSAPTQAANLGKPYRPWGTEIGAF

Substance: DPF3a (BAF45c1) (from UniProt Q92784-2) S348A
- binding against the reference: weaker
